Tests used:
[1] = target: T1, cynomolgus monkey FcRn/β2m (cynomolgus monkey, UniProt Q8SPV9 24-297; Q8SPW0 21-119, limits assumed); assay: SPR, immobilised antibody, cyno FcRn/b2m analyte, pH 6.0
T1 construct: injected in solution over immobilised antibody; also called Cyno FcRn/β2m
Procedure: (§1) Anti-C2 mAbs (1 μg/mL at pH 5) were immobilized on a carboxylmethyldextran (CM5) sensorchip surface using standard EDC/NHS chemistry. Human and Cyno FcRn/β2m (40 μM) were prepared in running buffer (10 mM HEPES, 150 mM NaCl, 10 mM MES adjusted to either pH 6 or pH 7.3) and injected on the immobilized anti-C2 surface at concentrations ranging from 0.078 to 40 μM, prepared in two-fold dilutions in running buffer. Association and dissociation phases were monitored for 180 and 600 seconds, respectively. […] Double referenced sensorgrams were fitted to either a 1:1 kinetic model (pH 6), including a term for mass transport limitation or to a 1:1 steady state model (pH 7.3) where responses at the end of the association phase were plotted against respective concentrations.
(§2) Binding to both human and cynomolgus monkey FcRn was tested using the SPR methods described above.

[2] = target: T1, cynomolgus monkey FcRn/β2m; assay: SPR, immobilised antibody, cyno FcRn/b2m analyte, pH 7.3
Procedure: as §1, §2

[3] = target: T2, human complement C2 zymogen (human, UniProt P06681 21-752); assay: SPR kinetics, captured antibody, analyte huC2 0 mM Ca^2+, pH 7.3
T2 construct: also called huC2; human C2
T2 sequence: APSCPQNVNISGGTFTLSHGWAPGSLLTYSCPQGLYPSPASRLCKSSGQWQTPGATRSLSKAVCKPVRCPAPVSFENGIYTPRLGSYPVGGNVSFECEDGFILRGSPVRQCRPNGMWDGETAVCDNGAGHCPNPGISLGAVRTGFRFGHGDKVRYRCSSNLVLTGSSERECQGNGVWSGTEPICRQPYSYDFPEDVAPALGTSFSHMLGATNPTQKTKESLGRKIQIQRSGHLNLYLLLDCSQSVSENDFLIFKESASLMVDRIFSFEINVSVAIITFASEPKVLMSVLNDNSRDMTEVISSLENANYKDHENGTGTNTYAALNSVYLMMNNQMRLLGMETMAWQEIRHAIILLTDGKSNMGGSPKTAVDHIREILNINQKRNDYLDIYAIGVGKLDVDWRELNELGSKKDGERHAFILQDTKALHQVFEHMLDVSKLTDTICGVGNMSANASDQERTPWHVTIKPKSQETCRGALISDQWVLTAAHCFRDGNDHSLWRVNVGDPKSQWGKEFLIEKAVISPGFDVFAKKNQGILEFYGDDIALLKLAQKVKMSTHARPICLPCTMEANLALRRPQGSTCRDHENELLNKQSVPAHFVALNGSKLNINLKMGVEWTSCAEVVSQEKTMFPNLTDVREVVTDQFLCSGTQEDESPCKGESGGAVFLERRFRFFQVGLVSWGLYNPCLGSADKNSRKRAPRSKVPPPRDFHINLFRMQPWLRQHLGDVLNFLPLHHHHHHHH
Procedure: (§3) Surface plasmon resonance (SPR, Biacore) was used for all binding affinity analyses. In brief, goat anti-human IgG was directly immobilised onto the carboxymethyl dextran surface of CM5 sensorchips to approximately 12,000 RU using standard NHS/EDC chemistry at pH 5. The immobilised antibody surface was pre-conditioned with ten injections of polyclonal human IgG (Privigen 60 s) prepared at 1 μg/mL. Ligands (anti-C2 mAbs) were captured at the beginning of each cycle as described below. An adjacent spot or flow cell in which only Polyclonal IgG was capture was used as a reference surface. The goat anti-human IgG Fc antibody surface was regenerate in 100 mM H3PO4, injected for 45 seconds at the end of each cycle. Experiments were performed at 37° C. and the flow rate of each experiment was kept constant at 30 μL/min.

[4] = target: T2, human complement C2 zymogen; assay: SPR steady state, captured antibody, analyte huC2 0 mM Ca^2+, pH 6.0
[5] = target: T2, human complement C2 zymogen; assay: SPR kinetics, captured antibody, analyte huC2 2 mM Ca^2+ (so in the source), pH 7.3
Procedure: as §3

[6] = target: T2, human complement C2 zymogen; assay: SPR kinetics, captured antibody, analyte huC2 20 mM Ca^2+ (so in the source), pH 7.3
Procedure: as §3

[7] = target: T2, human complement C2 zymogen; assay: SPR kinetics, captured antibody, analyte huC2 200 mM Ca^2+ (so in the source), pH 7.3
Procedure: as §3

[8] = target: T2, human complement C2 zymogen; assay: SPR kinetics, captured antibody, analyte huC2 2000 mM Ca^2+ (so in the source), pH 7.3
Procedure: as §3

[9] = target: T2, human complement C2 zymogen; assay: SPR steady state, captured antibody, analyte huC2 20 mM Ca^2+ (so in the source), pH 6.0
[10] = target: T2, human complement C2 zymogen; assay: SPR steady state, captured antibody, analyte huC2 200 mM Ca^2+ (so in the source), pH 6.0
[11] = target: T2, human complement C2 zymogen; assay: SPR steady state, captured antibody, analyte huC2 2000 mM Ca^2+ (so in the source), pH 6.0

T1 sequence (Q8SPV9 24-297 limits assumed, chain 1 of 2): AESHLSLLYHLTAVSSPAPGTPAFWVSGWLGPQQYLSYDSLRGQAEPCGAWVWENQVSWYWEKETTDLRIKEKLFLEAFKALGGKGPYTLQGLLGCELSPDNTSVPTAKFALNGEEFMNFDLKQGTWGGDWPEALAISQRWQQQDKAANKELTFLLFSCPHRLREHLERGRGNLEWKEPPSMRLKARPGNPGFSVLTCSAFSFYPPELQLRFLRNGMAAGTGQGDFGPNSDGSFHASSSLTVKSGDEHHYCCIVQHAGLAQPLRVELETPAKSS
T1 sequence (Q8SPW0 21-119 limits assumed, chain 2 of 2): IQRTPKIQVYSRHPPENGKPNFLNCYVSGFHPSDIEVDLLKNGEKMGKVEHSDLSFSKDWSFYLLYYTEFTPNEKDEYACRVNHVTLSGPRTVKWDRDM

B1: RF16-226 YPY (Fc mutations M252Y, V308P, N434Y) (antibody, human IgG4 S228P, lambda)
heavy: EVQLVQSGAEVKKPGESLKISCKGSGYSFTSYWIGWVRQMPGKGLEWMGIIYPGDSDTRYSPSFQGQVTISADKSISTAYLQWSSLKASDTAMYYCARRFSYSSGWDMWGQGTLVTVSSASTKGPSVFPLAPCSRSTSESTAALGCLVKDYFPEPVTVSWNSGALTSGVHTFPAVLQSSGLYSLSSVVTVPSSSLGTKTYTCNVDHKPSNTKVDKRVESKYGPPCPPCPAPEFLGGPSVFLFPPKPKDTLYISRTPEVTCVVVDVSQEDPEVQFNWYVDGVEVHNAKTKPREEQFNSTYRVVSVLTPLHQDWLNGKEYKCKVSNKGLPSSIEKTISKAKGQPREPQVYTLPPSQEEMTKNQVSLTCLVKGFYPSDIAVEWESNGQPENNYKTTPPVLDSDGSFFLYSRLTVDKSRWQEGNVFSCSVMHEALHYHYTQKSLSLSLGK
light: SYELTQPPSVSVSPGQTARITCSGDALTSKYVAWYQQKSGLAPLLVIYEDTRRPSGIPAKFSGSSSGSVATLTISGAHGDDEADYYCYSTDASGHQRVFGGGTKLTVLSQPKAAPSVTLFPPSSEELQANKATLVCLISDFYPGAVTVAWKADGSPVKAGVETTKPSKQSNNKYAASSYLSLTPEQWKSHRSYSCQVTHEGSTVEKTVAPTECS
Kd [1]: 8.7 nM | Kd [2]: 1100 nM | Kd [3]: 8.5 nM | koff [3]: 0.00493 s⁻¹ | kon [3]: 578000 M⁻¹ s⁻¹ | Kd [4]: 87.3 nM | kon [5]: 572000 M⁻¹ s⁻¹ | Kd [6]: 8.4 nM | koff [6]: 0.00526 s⁻¹ | kon [6]: 626000 M⁻¹ s⁻¹ | Kd [7]: 8.8 nM | koff [7]: 0.00539 s⁻¹ | kon [7]: 612000 M⁻¹ s⁻¹ | Kd [8]: 10.2 nM | koff [8]: 0.00584 s⁻¹ | Kd [9]: 83.1 nM | Kd [10]: 91.9 nM | Kd [11]: 102 nM

From patent publication US20220332804A1 (CSL INNOVATION, published 2022)
